These results are taken from paper PMC5471267, “Novel regulatory mechanism of serine biosynthesis associated with 3-phosphoglycerate dehydrogenase in Arabidopsis thaliana” (Scientific Reports, 2017).

Values joined by “and” are separate entries in the source; they are usually repeats but may differ in a detail not shown here. Equal values may be shown once.

One data set deals with T1, AtPGDH1 (Arabidopsis thaliana, UniProt O49485).
T1 construct: gene PGDH1; mature enzyme, predicted chloroplast transit peptide removed; eXact tag cleaved (tag-free); E. coli BL21 CodonPlus(DE3)-RIL; homotetramer
T1 sequence (O49485 59-603 limits assumed): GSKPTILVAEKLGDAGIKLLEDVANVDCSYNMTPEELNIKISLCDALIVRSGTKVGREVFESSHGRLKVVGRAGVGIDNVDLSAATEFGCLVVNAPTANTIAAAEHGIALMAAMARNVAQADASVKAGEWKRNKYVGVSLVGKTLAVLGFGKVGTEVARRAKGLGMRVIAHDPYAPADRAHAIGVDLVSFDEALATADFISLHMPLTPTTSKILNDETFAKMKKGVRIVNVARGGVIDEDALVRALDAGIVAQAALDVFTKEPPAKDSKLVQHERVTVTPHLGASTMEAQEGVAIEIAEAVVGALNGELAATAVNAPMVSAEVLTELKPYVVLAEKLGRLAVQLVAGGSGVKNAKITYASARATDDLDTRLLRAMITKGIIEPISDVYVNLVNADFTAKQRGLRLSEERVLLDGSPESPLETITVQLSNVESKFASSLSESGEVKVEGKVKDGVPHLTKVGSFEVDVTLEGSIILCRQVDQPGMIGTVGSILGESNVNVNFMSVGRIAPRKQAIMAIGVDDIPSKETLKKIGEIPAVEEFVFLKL
Briefly: 3-PGA oxidation, NADH absorbance at […] nm; Hill fit. Format: biochemical.

A further data set deals with T2, AtPGDH3 (Arabidopsis thaliana, UniProt Q9LT69).
T2 construct: gene PGDH3; mature enzyme, predicted chloroplast transit peptide removed; eXact tag cleaved (tag-free); E. coli BL21 CodonPlus(DE3)-RIL; homotetramer
T2 sequence (Q9LT69 44-588 limits assumed): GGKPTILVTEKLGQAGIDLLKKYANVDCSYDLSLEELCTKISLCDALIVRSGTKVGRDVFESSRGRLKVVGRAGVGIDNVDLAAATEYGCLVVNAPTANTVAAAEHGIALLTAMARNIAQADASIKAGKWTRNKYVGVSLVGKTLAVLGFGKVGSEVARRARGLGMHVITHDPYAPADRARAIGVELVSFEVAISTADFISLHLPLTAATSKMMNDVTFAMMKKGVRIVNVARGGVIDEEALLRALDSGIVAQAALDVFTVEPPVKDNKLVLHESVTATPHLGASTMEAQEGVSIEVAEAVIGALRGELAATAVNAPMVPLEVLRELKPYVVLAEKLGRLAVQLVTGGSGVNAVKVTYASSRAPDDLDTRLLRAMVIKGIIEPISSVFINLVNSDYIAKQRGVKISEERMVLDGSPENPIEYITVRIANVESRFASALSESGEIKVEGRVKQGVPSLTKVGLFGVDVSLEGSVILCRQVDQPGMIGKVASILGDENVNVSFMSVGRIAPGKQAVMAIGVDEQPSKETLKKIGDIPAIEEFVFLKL
In words: 3-PGA oxidation, NADH absorbance at […] nm; Hill fit. Format: biochemical.

The subject of a further data set is T3, AtPGDH-N2/C1.
T3 construct: gene PGDH2; one fused polypeptide: N-terminal half (catalytic domain) of AtPGDH2 + C-terminal half (ASB and ACT domains) of AtPGDH1; tag-free, E. coli; homotetramer
Briefly: 3-PGA oxidation, NADH absorbance at […] nm; Hill fit. Particulars: inhibitor, cooperative; 10 mM 3-PGA, 1 mM NAD+, 0.1 M NaCl, pH 9.0, 25 °C. The format is biochemical, Arabidopsis thaliana.

The target of data set [1] is AtPGDH-N2/C1: chimera of the N-terminal half of AtPGDH2 and the C-terminal half of AtPGDH1 (A. thaliana). In words: SEC; HiLoad 26/600 Superdex 200 preparation grade column, flow rate 1 mL/min, 100 mM sodium phosphate buffer (pH 9.0); native molecular weight estimated from a standard curve of marker proteins; oligomer of the protein with itself.
Data set [2] deals with the molecule itself. The description is as above.
Substrate in data set [3]: NC(=O)c1ccc[n+]([C@@H]2O[C@H](COP(=O)(O)OP(=O)(O)OC[C@H]3O[C@@H](n4cnc5c(N)ncnc54)[C@H](O)[C@@H]3O)[C@@H](O)[C@H]2O)c1
In words: purified protein. The format is biochemical, Arabidopsis thaliana. Particulars: 10 mM 3-PGA, 0.1 M NaCl, pH 9.0, 25 °C, varied: cofactor.

Substrate in data set [4]: O=C(O)[C@H](O)COP(=O)(O)O
In words: purified protein. Format: biochemical, Arabidopsis thaliana. Particulars: 1 mM NAD+, 0.1 M NaCl, pH 9.0, 25 °C.

What is called EC50 is the concentration needed to bring the measured effect to its halfway point. Take `CC(C)[C@H](N)C(=O)O` [L-valine]: the EC50 at AtPGDH1 came out at 7100 ± 200 µM; on AtPGDH3, 2300 ± 200 µM.

For `N[C@@H](CCO)C(=O)O` [L-homoserine], the EC50 on AtPGDH1 amounted to 3000 ± 300 µM; on AtPGDH3 it was 9200 ± 300 µM.

Take `N[C@@H](CO)C(=O)O` [L-serine]: the EC50 was 6600 µM at AtPGDH1, 2700 ± 100 µM with AtPGDH-N2/C1 and 1300 µM on AtPGDH3.

The term stoichiometry N denotes a count of units in the complex or per binding partner. Turning to “AtPGDH-N2/C1: chimera of the N-terminal half of AtPGDH2 and the C-terminal half of AtPGDH1 (enzyme)”, the stoichiometry N in data set [1] is 4.

With `N[C@@H](CCS)C(=O)O` [L-homocysteine], the EC50 turned out to be 23 µM at AtPGDH1 and 69 µM on AtPGDH3.

In the case of `CSCC[C@H](N)C(=O)O` [L-methionine], the results for the EC50 on AtPGDH1 and on AtPGDH3 were 670 µM and 2500 ± 100 µM, respectively.

B1: Arabidopsis thaliana 3-phosphoglycerate dehydrogenase 3 (AtPGDH3), recombinant, without the predicted transit peptide (enzyme, A. thaliana, UniProt Q9LT69 39-588, looked up)
chain: SSSGGGGKPTILVTEKLGQAGIDLLKKYANVDCSYDLSLEELCTKISLCDALIVRSGTKVGRDVFESSRGRLKVVGRAGVGIDNVDLAAATEYGCLVVNAPTANTVAAAEHGIALLTAMARNIAQADASIKAGKWTRNKYVGVSLVGKTLAVLGFGKVGSEVARRARGLGMHVITHDPYAPADRARAIGVELVSFEVAISTADFISLHLPLTAATSKMMNDVTFAMMKKGVRIVNVARGGVIDEEALLRALDSGIVAQAALDVFTVEPPVKDNKLVLHESVTATPHLGASTMEAQEGVSIEVAEAVIGALRGELAATAVNAPMVPLEVLRELKPYVVLAEKLGRLAVQLVTGGSGVNAVKVTYASSRAPDDLDTRLLRAMVIKGIIEPISSVFINLVNSDYIAKQRGVKISEERMVLDGSPENPIEYITVRIANVESRFASALSESGEIKVEGRVKQGVPSLTKVGLFGVDVSLEGSVILCRQVDQPGMIGKVASILGDENVNVSFMSVGRIAPGKQAVMAIGVDEQPSKETLKKIGDIPAIEEFVFLKL
notes: region that corresponds with the mature enzyme, the chloroplast transit peptide having been predicted by comparison with MtPGDH; theoretical molecular weight 57.9 kDa; also called At3g19480
On to B1, for which the “stoichiometry N” value in data set [2] was 4.

B2: AtPGDH2 (Arabidopsis thaliana) (protein)
chain: LPKPRILVTEKLGEAGVNLLREFGDVDCSYDLSPEDLKKKVAESDALIVRSGTKVTREVFEAAKGRLKVVGRAGVGIDNVDLQAATEHGCLVVNAPTANTVAAAEHGIALLASMARNVAQADASIKAGKWERSKYVGVSLVGKTLAVMGFGKVGTEVARRAKGLGMTVISHDPYAPADRARALGVDLVSFDQAISTADFVSLHMPLTPATKKVFNDETFSKMKKGVRLINVARGGVIDEDALVRALDAGIVAQAALDVFCEEPPSKDSRLIQHENVTVTPHLGASTKEAQEGVAIEIAEAVAGALKGELSATAVNAPMVAPEVLSELTPYIVLAEKLGRLAVQLASGGKGVQSIRVVYRSARDRDDLDTRLLRAMITKGIIEPISDSYVNLVNADFIAKQKGLRISEERMVVDSSPEYPVDSIQVQILNVESNFAGAVSDAGDISIEGKVKYGVPHLTCVGSFGVDVSLEGNLILCRQVDQPGMIGQVGNILGEQNVNVNFMSVGRTVLRKQAIMAIGVDEEPDNKTLERIGGVSAIEEFVFLKL
notes: mature enzyme, predicted chloroplast transit peptide removed; eXact tag cleaved (tag-free); E. coli BL21 CodonPlus(DE3)-RIL; equilibrium of homooctamers and homotetramers
One may read the Km as the substrate concentration at which the rate is half of its maximum. The kcat is the number of substrate molecules converted per active site and unit of time at saturation. As to B2, in the data set “purified protein [3]”, the Km is 123 ± 7 µM and the kcat came out at 16 s⁻¹. Further, in “purified protein [4]”, the Km came to 1030 ± 70 µM and the kcat turned out to be 16 s⁻¹.

B3: Arabidopsis thaliana 3-phosphoglycerate dehydrogenase 2 (AtPGDH2), recombinant, without the predicted transit peptide (enzyme, A. thaliana, UniProt O04130-1 50-624, looked up)
chain: AALKTVEQTTLTEDNRFSTVGSDSDEYNPTLPKPRILVTEKLGEAGVNLLREFGDVDCSYDLSPEDLKKKVAESDALIVRSGTKVTREVFEAAKGRLKVVGRAGVGIDNVDLQAATEHGCLVVNAPTANTVAAAEHGIALLASMARNVAQADASIKAGKWERSKYVGVSLVGKTLAVMGFGKVGTEVARRAKGLGMTVISHDPYAPADRARALGVDLVSFDQAISTADFVSLHMPLTPATKKVFNDETFSKMKKGVRLINVARGGVIDEDALVRALDAGIVAQAALDVFCEEPPSKDSRLIQHENVTVTPHLGASTKEAQEGVAIEIAEAVAGALKGELSATAVNAPMVAPEVLSELTPYIVLAEKLGRLAVQLASGGKGVQSIRVVYRSARDRDDLDTRLLRAMITKGIIEPISDSYVNLVNADFIAKQKGLRISEERMVVDSSPEYPVDSIQVQILNVESNFAGAVSDAGDISIEGKVKYGVPHLTCVGSFGVDVSLEGNLILCRQVDQPGMIGQVGNILGEQNVNVNFMSVGRTVLRKQAIMAIGVDEEPDNKTLERIGGVSAIEEFVFLKL
notes: AtPGDH2 (At1g17745), A. thaliana; region that corresponds with the mature enzyme, the chloroplast transit peptide having been predicted by comparison with MtPGDH; theoretical molecular weight 57.6 kDa; Found as an equilibrium of homooctamers and homotetramers; also called At1g17745
For the molecule B3, in data set [2], the “stoichiometry N” value was 8 and 4.

B4: Arabidopsis thaliana 3-phosphoglycerate dehydrogenase 1 (AtPGDH1), recombinant, without the predicted transit peptide (enzyme, A. thaliana, UniProt O49485 55-603, looked up)
chain: STGDGSKPTILVAEKLGDAGIKLLEDVANVDCSYNMTPEELNIKISLCDALIVRSGTKVGREVFESSHGRLKVVGRAGVGIDNVDLSAATEFGCLVVNAPTANTIAAAEHGIALMAAMARNVAQADASVKAGEWKRNKYVGVSLVGKTLAVLGFGKVGTEVARRAKGLGMRVIAHDPYAPADRAHAIGVDLVSFDEALATADFISLHMPLTPTTSKILNDETFAKMKKGVRIVNVARGGVIDEDALVRALDAGIVAQAALDVFTKEPPAKDSKLVQHERVTVTPHLGASTMEAQEGVAIEIAEAVVGALNGELAATAVNAPMVSAEVLTELKPYVVLAEKLGRLAVQLVAGGSGVKNAKITYASARATDDLDTRLLRAMITKGIIEPISDVYVNLVNADFTAKQRGLRLSEERVLLDGSPESPLETITVQLSNVESKFASSLSESGEVKVEGKVKDGVPHLTKVGSFEVDVTLEGSIILCRQVDQPGMIGTVGSILGESNVNVNFMSVGRIAPRKQAIMAIGVDDIPSKETLKKIGEIPAVEEFVFLKL
notes: AtPGDH1 (At4g34200), A. thaliana; region that corresponds with the mature enzyme, the chloroplast transit peptide having been predicted by comparison with MtPGDH; theoretical molecular weight 57.5 kDa; The start of the 'mature' region is a prediction of the authors from an alignment with MtPGDH; also called At4g34200
As for B4, in data set [2], the “stoichiometry N” value is 4.

B5: AtPGDH1 (Arabidopsis thaliana) (protein)
chain: T1 sequence (O49485 59-603 limits assumed)
notes: mature enzyme, predicted chloroplast transit peptide removed; eXact tag cleaved (tag-free); E. coli BL21 CodonPlus(DE3)-RIL; homotetramer
On to B5, for which, in “purified protein [3]”, the Km was determined as 50 ± 2 µM and the kcat was 15 s⁻¹. In the data set “purified protein [4]”, the Km came out at 500 ± 50 µM and the kcat is 15 s⁻¹.

B6: AtPGDH3 (Arabidopsis thaliana) (protein)
chain: T2 sequence (Q9LT69 44-588 limits assumed)
notes: as for B5
Take B6: in “purified protein [4]”, the Km came to 770 ± 90 µM and the turnover number (kcat) was 17 s⁻¹.
